Source: the DeepSol protein solubility set

Assay: soluble on expression in E. coli; label from the status in PepcDB or PDB records

Sequence | soluble on expression in E. coli
MVTFASGDMLADDLGRFDYVVAMDSLIYYTDADIAAALDRLGARTRHSVVFTVAPRTPFLMAFWTMGKLFPRSDRSPVMIPHPFQPLNEATGGRLVKVGRVSRGFYISECLEFRPLEHHHHHH | soluble
MRVSLYVVVGGFALLTGCQTLDNHQVTKPEAQTVTTENTVPQYYLATEPESAQVTDVWERIRQGMQLPVPDKKLVNYYRDWYINNPKHLEVISERAAPYMYLIVEELEKRHLPIEIALLPIIESAFDPSASSASAASGLWQFTTPMASHFGLEMNWWYDGRRDVPASTTAALDMLEYLYNKTNNNWLYAIAAYNTGESKVLNAIKRNEDKGLKTDFWSLDLPKETKRYVPQLLALAEVIKHADEYGITLAPINNSPSIEVVDIDSQIDLAMAAGLANMTTTELAKLNPGYNRWATSPLGPHTLVLPIDKSEEFKKALAETESEARVSWLRYTIKSGDSIGSIAQKHHTTVNAIRAANGMKSNNIVAGRHLIIPVSADDKQLYALSTSQKLPKKAAGATSGNKLTYQVKSGDSLWQIAQAHNVSVKQLTAWNHLSKDSKLQTGQKLTIVAPQEKLDSEHIRTVSYKVKSGDSLAQIASKFKVTVAELLEWNSLTPSQYILPGQVLKLVVDESNLNALEHHHHHH | not soluble
MANSLRNVNDYDPFKYRPSYFDLEAPTESFALGKFVDAIEVKQMALDAFSESSMVSIATSQLPKTAYTATSFIESEYYSFPYLFNDQKYYWDYFDYKIPAADFAVLELELDLNNQQDQQIKDHFIDPAIKAYKQLGDSTGLFATKPLTEYQNDTHYLLGYPVVPTDHTQLWECKQGAERFSYGYFYSNMARLTKNLRQGDPNAGSKTHIEYSNELLDKDSMDQGIVRFSTFLGANINYHDYDYRQQGYGLTLTDTNLPGGSSGSLVFNQDKKISSIYSAATESDSVGYAQLLRTPRDVNGISVVSQSYDLIFGDSNTKRYYAMFAKKQQTHLYSEILKSTDEQYRYVVDKQFN | soluble
MASDEGKLFVGGLSFDTNEQSLEQVFSKYGQISEVVVVKDRETQRSRGFGFVTFENIDDAKDAMMAMNGKSVDGRQIRVDQAGKSSDNR | soluble
DVTDIKVKEAEIVSKSVAIREIHHRVKNNLQSVVSLLRIQGRRSTSVEAQKVLNESVSRILAIAATHELLSKQMEDGINLYMVIEAVAYNIERCCNDCPQVAVRMDI | not soluble
MGSDKIHHHHHHMIINKHVMRSTNEKQVLQQVINEGPISRSQISRNLSLNKVTVSDIYNQLLRTQFIKEIGCGVSTKNGGRKPVMAELNVNYGFVASIDMTADAVKLMYSRLNGKILHFQSFKTSDMTLTDVIDLIEDQLRNVDDYGTIHGLMGVAIALDGIIYENKILKTPIKGLTHFDLAKYLRDKLRIPVVLEKKANLTAVFERDFHDNEIFDNVVSVVVRDQIHAGIVADSRLYSGHEGEAGEVGTALLEDRHVEDHLASVNDYASEKALWARLKAIKHVERLDLTTVKHDYINHDPEVTKVFDDFVYYLSKVIANVSTAFAPDVVVLNTTVLEILPQLLTNVRESTAKLTSPSRQVPIIATKNVQSAALLGGASVIIHQALGLESLKMQFS | not soluble
MSLEALSSYQQRNNQQLDQWLNRIPFQTLPLIEAMRYGLLLGGKRARPYLVYITGQMLGCELSDLDTPASAVECIHAYSLIHDDLPAMDDDELRRGKPTCHIQFDEATAILTGDALQTLAFTILAEGDLSAAGETQRVAMLQALAEASGAQGMCLGQALDLAAENRLISLEELETIHRNKTGALMRCAIRLGALAAGEKGRAMLPHLDRYAEAVGLAFQVQDDILDIISDTETLGKPQGSDQELNKSTYPALLGLEGAQQKAHTLLQEALLALEAIPYNTEHLEEFARYVVERKNEGHHHHHH | soluble
MQNEKTLRKIKKLLALSKSSNPHEAAKALEMAQKLMQENRINQVEIEFSQYHGKQKTAKKSARYVHQLVGVITRAFGVDAYMSNFYPDKDEAEEKMHVVFYGAEGRPEIASYCFDVLYRQLQTARKEFLATQSKRLKRSTLISRGDEFCQGWVFGVHENVKEFAMTPEEKGKLERYRYNGFKDLQTAKVRDAGETRDYGLALSQGYKQGSKVTLNHGVNGKETTKLGGDEMKENNGWIACNLGSA | not soluble
MGLCLAKRNHDADDDEPHIELAGGNVHLITTKERWDQKLSEASRDGKIVLANFSARWCGPCKQIAPYYIELSENYPSLMFLVIDVDELSDFSASWEIKATPTFFFLRDGQQVDKLVGANKPELHKKITAILDSLPPSDK | soluble
MPTITLRLELHNPTKVKQDMYERMTEVNTAFANWLLNHPELNQATSKIFKEFSPQRFPSAVVNQTIREVKSQKKNQKTKKFRTFWCCFNNQNVKVEKKGAFYTVSFPTLEKRIGVPVVTRPYQEAWLNRLLDGTAKQGAAKLYKKRTKWYLAIAITFEVKPRHETKVMGVDLGLRYIAVASVGTKSLFFKGSQCAFIRRRYAALRRTLGKAKKLQMIRKIGRKESRWMKDQNHKISRQIVNVALANGVGVIRMEALTGIRKRAKSAKEAGRSLHSWAFHQLQTMIAYKAEMAGIRVEWVKPTYTSQTCKCGHREKGNRNGIHFQCKQCGYTLHADLNGAINIAKAISGFVAEPSALVTGAPPIGVHRNPMGRGDDTPLNLGVVRTRNG | not soluble
MAHHHHHHMFPASGSGPGVAGSALKGFKGMHHKPPNYPYPYVVGVDGAGEVESVGRKVTGLKAGDRVMFHSSLTNAHGGSLCEYAVMEESVAVPIPADGARPFSYEEAAAIPCATWTAYVALFDKLRIEPGRSIFVDGASGAVGSCAVQLAHHMGLYVFASCSPSNADYVRSIGADQVLNYHDGIEMVDQILDATEGYGVDYYLAVTNTQDAESFTDALRFGGAVCLLSGVLIPNSNVLFRRQLSVHYVFLNGLHGHPLTRPQLRYIGDQVAKLYQSGAFRLDVEVLPFAEAAKALDRSATGNVNHKKLIVQVASP | not soluble
MQEGLVVVESCPRLGWAMESPENGTRQTAYEIEIREAFTGRSVWNSGKVTSSQSQLVPTEGADICLNNPFNYSWRVRVWDETDTPSEWSQEAKFRLASDDLSSGKWIGAITRKDSHLPEGRKFHGGELKKPEVKAAWEAVDTLAKKSICLRRTFQTGEAKGKNANRKSGKKIVEATAYVCGLGFYEFSLNGKKIGDSEFAPLWSDYDKSVYYNTYDVTEQLQDGENVVGILLGNGFYNVQGGRYRKLQISFGPPTLLFELVINYEDGTRETIRSDHEWKYDLSPITFNCIYGGEDYDARREQKGWNQVGFNDSHWRPVVVQEAPKGVLRSQMAPPVKIMERYDIQKVTKLNSEQVMAASKSTKRTVDPSAVVLDMGQNLAGFPEITVRGKRGQKVTLIVAEALMDEGACNQRQTGRQHYYEYTLKGEGDEIWHPRFSYYGFRYIQVEGAVLKGQKNPQKLPVLKNIQSCFIYNSAKKVSTFESSNRIFNAAHRLIEKAVRSNMQSVFTDCPHREKLGWLEQVHLNGPGLLYNYDLTAYAPQIMQNMADAQHPNGAMPTTAPEYVVFEGPGMDAFAESPEWGGSLVIFPFMYYETYGDDSLIKKYYQHMRRYTDYLKTRADNGILSFGLGDWYDYGDFRAGFSRNTPVPLVATAHYYMTVMYLIKAARMVGNEFDVRYYSSLAYDIMVAFNKRFLDSNTAQYGTGSQASNALPIFLQMIQSTGDKGDYTPDASLAAKVLTNLIKDVESHGNRLTTGDVGNRYLIQTLARNGQHELIYKMFNHEEAPGYGFQLKFGATTLTEQWDPRQGSSWNHFMMGQIDEWFFNSLIGIRPSTTLSASVNEKDEPMQGYQKFVIAPKPVGDLKYVKSTYETLYGTILVDWTRQSGTFTLNVSVPVNTTAIVYLPGEKEPKEVQSGTYKFVAAE | not soluble
MAHHHHHHMYLLQCEKKKKQKGKGQIGLTQVEYIGKPLIGGDFTLINHDGKVVTNEDFKKKFCLIYFGFTYCPDICPQELEKQTIVIERIVKKYGDVITPVFISVDPNRDTLAQVKHYCSSFSDRLVGLTGTKEQIRRVAKLFRVYYNEHVVGEEQTEEQTEKQKERQTDTQTEAQSGDPPRAPSYNYLIDHSIIHYLLDADGKFVDFFGKNCTTSEMVERISHYVDLHLQ | not soluble
